# Results taken from US20260265334A1, “STAPLED PEPTIDES” (THE FLOREY INSTITUTE OF NEUROSCIENCE AND MENTAL HEALTH, priority 2023, published 2026).
# Read-outs that look alike come from different tables or passages of the source. Bridge positions count the residues as written; N and C are the ends. Square brackets hold non-standard residues; d marks the D form. Ends that are not written are not given here. Peptide text beside a SMILES is read from it. I, II: the chains in the order shown. ξ: configuration not given here. αMeF = C[C@](N)(Cc1ccccc1)C(=O)O; S5 = C=CCCC[C@](C)(N)C(=O)O; αMeC = C[C@](N)(CS)C(=O)O; ξF = NC(Cc1ccccc1)C(=O)O
# T1: RXFP3 (Homo sapiens, UniProt Q9NSD7)
# T1 construct: expressed in transfected cells
# T1 sequence (Q9NSD7 1-469): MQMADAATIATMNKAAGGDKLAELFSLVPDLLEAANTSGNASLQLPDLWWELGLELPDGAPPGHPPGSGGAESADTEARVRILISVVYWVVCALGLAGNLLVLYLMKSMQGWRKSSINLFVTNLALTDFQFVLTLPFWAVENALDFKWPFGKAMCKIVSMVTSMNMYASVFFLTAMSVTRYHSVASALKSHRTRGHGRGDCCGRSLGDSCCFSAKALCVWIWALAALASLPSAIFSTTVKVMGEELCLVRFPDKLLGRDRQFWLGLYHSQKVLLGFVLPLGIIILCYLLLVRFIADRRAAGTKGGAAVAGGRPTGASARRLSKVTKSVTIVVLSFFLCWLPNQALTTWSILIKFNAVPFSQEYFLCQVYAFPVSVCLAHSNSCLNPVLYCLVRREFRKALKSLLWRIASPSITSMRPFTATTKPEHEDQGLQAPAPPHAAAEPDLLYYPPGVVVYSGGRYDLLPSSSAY
# T2: RXFP3 (relaxin family peptide receptor 3) on CHO-K1-RXFP3 cells (UniProt Q9NSD7 1-469, limits assumed)
# T2 construct: whole, on cells; also called GPCR135
# T2 sequence (looked up): T1 sequence (Q9NSD7 1-469)
# B1: Native INSL5 (human insulin-like peptide 5) (ligand)
# chain 1: ZDLQTLCCTDGCSMTDLSALC
# chain 2: KESVRLCGLEYIRTVIYICASSRW
# B2: INSL5-A13 (two-chain INSL5 analogue, RXFP4 agonist) (ligand)
# chain 1: CTDGASMKDLSALC
# chain 2: KESVRLCGLEYIRTVIYICASSRW
# modifications: disulfide I:1-II:7, I:14-II:19
# notes: Disulfide bonds: Cys 1 of A chain to Cys 7 of B chain; Cys 14 of A chain to Cys 19 of B chain; also called Analogue 13; two chain agonist
# B3: INSL5-A13: B7-24_G20/21 (two-chain G20/21 analogue) (ligand)
# chain 1: CTDGASMKDLSALC
# chain 2: CGLEYIRTVIYICGGSRW
# notes: GlyGly at positions B20 and B21; also called Formula III
# B4: INSL5-A13: B7-24 (reduced two chain analogue) (ligand)
# chain 1: CTDGASMKDLSALC
# chain 2: CGLEYIRTVIYICASSRW
# modifications: not fully specified; cysteine pairing not given here
# notes: also called Formula II
# B5: Linear B-chain (INSL5 B chain analogue, Formula IV) (peptide)
# peptide: SGLEYIRTVIYISGGSRW-OH
# notes: Residues numbered 7-24 after the native INSL5 B chain; also called control
# B6: αF stapled analogue (INSL5 B-chain, Formula V) (peptide)
# peptide: SGL[αMeF]YIR[αMeF]VIYISGGSRW
# notes: 18-residue RXFP4 agonist; also called aF stapled analogue; πI5B
# B7: πI5B7-24-GG-S19E (peptide)
# peptide: SGL[αMeF]YIR[αMeF]VIYIEGGSRW
# notes: 18-residue RXFP4 agonist with two αF residues and glutamic acid at residue 19 (numbering of native INSL5 B chain)
# How the values were obtained:
# RXFP3 [1] = target: T1, RXFP3; assay: Eu-H3B1-22R competition binding assay in CHO-K1-RXFP3 cells; conditions: 5 nM Eu-H3B1-22R, mean ± SEM (n)
# Procedure: An Eu-H3B1-22R competition binding assay was conducted in CHO-K1-RXFP3 cells.
# (§1) Competition binding curves for each peptide were performed in triplicate and each experiment was performed independently at least three times. Fluorescent measurements were carried out at excitation of 340 nm and emission of 614 nm on a BMG POLARstar plate reader (BMG Labtech, Melbourne, Australia). Pooled data were presented as mean±S.E.M. of specific binding and are fitted using a one-site binding curve in GraphPad Prism version 8 (GraphPad Inc., San Diego, USA). Statistical analyses were conducted using one-way analysis of variance with uncorrected Fisher's least significant difference (LSD) post-hoc analysis in GraphPad Prism version 9.
# (§2) Competition binding and cAMP activity assay were conducted by a procedure analogous to that described above for Example 3. The results are shown in FIG. 24 (RXFP3) and FIG. 25 (RXFP4).
# RXFP3 [2] = target: T1, RXFP3; assay: Inhibition of forskolin-induced cAMP activity in CHO-K1-RXFP3 cells (pCRE β-galactosidase reporter); format: cell-based; conditions: 5 μM forskolin, 6 hours
# Procedure: Since RXFP3 is coupled to Gi/o proteins, peptides were tested for their ability to activate RXFP3 as measured via their ability to inhibit forskolin-induced cAMP activity in CHO-K1-RXFP3 or CHO-K1-RXFP4 cells transfected with a pCRE (cAMP Response Element) β-galactosidase reporter plasmid (as described in Belgi, A et al., Structure and function relationship of murine insulin-like peptide 5 (INSL5): free C-terminus is essential for RXFP4 receptor binding and activation. Biochemistry 2011, 50 (39), 8352-61; and Haugaard-Kedstrom, L. M et al., Synthesis and pharmacological characterization of a europium-labelled single-chain antagonist for binding studies of the relaxin-3 receptor RXFP3. Amino Acids 2015, 47 (6), 1267-71). For agonist assays, cells were stimulated with forskolin (5 μM for RXFP3, 1 μM for RXFP4)±increasing concentrations of each peptide for 6 hours. Data were expressed as the % forskolin activity, whereby 100% was defined as forskolin alone and 0% as maximum agonist stimulation (1 μM Analogue 2 for RXFP3 and 1 μM Analogue 13 for RXFP4). Data were analysed and plotted using GraphPad Prism 9 and are expressed as the mean±SEM of the pooled data. Statistical analysis was conducted using one-way ANOVA with Uncorrected Fisher's LSD post-hoc analysis using GraphPad Prism 9.
# as §2
# RXFP4 [3] = target: T3, RXFP4 (Homo sapiens, UniProt Q8TDU9); assay: Inhibition of forskolin-induced cAMP activity in CHO-K1-RXFP4 cells (pCRE β-galactosidase reporter); format: cell-based; parameters: expressed in transfected cells; conditions: for cAMP pEC50: RXFP4, CHO-K1-RXFP4 cells, 1 μM forskolin, 6 hours, Table 3
# T3 sequence (Q8TDU9 whole entry): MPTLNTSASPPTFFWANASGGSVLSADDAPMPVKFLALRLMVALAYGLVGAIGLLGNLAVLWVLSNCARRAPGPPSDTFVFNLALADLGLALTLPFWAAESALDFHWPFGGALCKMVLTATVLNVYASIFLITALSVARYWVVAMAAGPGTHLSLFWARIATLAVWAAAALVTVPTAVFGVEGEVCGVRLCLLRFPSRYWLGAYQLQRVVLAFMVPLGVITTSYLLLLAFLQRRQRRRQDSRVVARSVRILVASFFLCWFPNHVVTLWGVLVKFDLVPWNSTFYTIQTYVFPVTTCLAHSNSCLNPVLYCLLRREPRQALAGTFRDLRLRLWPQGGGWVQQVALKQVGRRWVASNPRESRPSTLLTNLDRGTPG
# Procedure: For agonist assays, cells were stimulated with forskolin (5 μM for RXFP3, 1 μM for RXFP4)±increasing concentrations of each peptide for 6 hours. Data were expressed as the % forskolin activity, whereby 100% was defined as forskolin alone and 0% as maximum agonist stimulation (1 μM Analogue 2 for RXFP3 and 1 μM Analogue 13 for RXFP4). Data were analysed and plotted using GraphPad Prism 9 and are expressed as the mean±SEM of the pooled data. Statistical analysis was conducted using one-way ANOVA with Uncorrected Fisher's LSD post-hoc analysis using GraphPad Prism 9.
# (§3) An additional analogue of INSL5 was utilised as a control, INSL5-A13, having an A chain (SEQ ID NO: 9) and a B chain (SEQ ID NO: 10) with a first disulfide bond between Cys 1 of the A chain and Cys 7 of the B chain, and a second disulfide bond between Cys 14 of the A chain and Cys 19 of the B chain:
# as §2
# RXFP4 [4] = target: T3, RXFP4; assay: Eu-R3/I5 competition binding assay in CHO-K1-RXFP4 cells; parameters: expressed in transfected cells
# Procedure: An Eu-R3/15 competition binding assay in CHO-K1-RXFP4 cells was carried out.
# as §1, §3, §2
# [5] = target: T4, RXFP4 (relaxin family peptide receptor 4) on CHO-K1-RXFP4 cells (UniProt Q8TDU9 1-374, limits assumed); assay: cell-based or functional assay
# T4 sequence (Q8TDU9 whole entry): as above
# [6] = target: T4, RXFP4 (relaxin family peptide receptor …); assay: competition with Eu-R3/I5 on CHO-K1-RXFP4 cells
# [7] = target: T5, LgBiT-RXFP4 (HEK-LgBiT-RXFP4 crude membrane fractions) (UniProt Q8TDU9 1-374); assay: NanoBiT competition with 2 nM SmBiT-R3/I5 on HEK-LgBiT-RXFP4 membranes
# T5 construct: Assayed as crude membrane fractions (25 µg protein) of HEK cells; not shown: LgBiT tag of NanoBiT
# T5 sequence (Q8TDU9 whole entry): as above
# [8] = target: T4, RXFP4 (relaxin family peptide receptor …); assay: competition with Eu-R3/I5 on CHO-K1-RXFP4 cells; remark: listed apart in the source
# [9] = target: T2, RXFP3 (relaxin family peptide receptor …); assay: competition with Eu-H3B1-22R on CHO-K1-RXFP3 cells
molecule,measurement,setting,value
CC[C@H](C)[C@@H]1NC(=O)[C@H](Cc2ccccc2)NC(=O)[C@H](CCC(=O)O)NC(=O)[C@H](CCCNC(=N)N)NC(=O)CNC(=O)[C@@H](NC(=O)[C@H](CC(C)C)NC(=O)[C@H](CCCNC(=N)N)NC(=O)[C@@H](NC(=O)CNC(=O)[C@H](Cc2ccc(O)cc2)NC(=O)[C@@H]2CCCN2C(=O)[C@H](C)NC(=O)[C@H](C)NC(=O)[C@@H](N)CCCNC(=N)N)C(C)C)CSSC[C@@H]2NC(=O)[C@@H](NC(=O)[C@H](CO)NC(=O)[C@H](CO)NC(=O)[C@H](CO)NC(=O)[C@H](CC(C)C)NC(=O)CNC(=O)[C@H](C)NC(=O)[C@H](CC(C)C)NC(=O)[C@@H](NC(=O)[C@@H](N)CC(=O)O)C(C)C)CSSC[C@H](NC(=O)CNC(=O)[C@H](Cc3c[nH]c4ccccc34)NC(=O)[C@H](CCCCN)NC2=O)C(=O)N[C@@H](CO)C(=O)N[C@@H](CCCCN)C(=O)N[C@@H](CO)C(=O)N[C@@H](CCC(=O)O)C(=O)N[C@@H]([C@@H](C)CC)C(=O)N[C@@H](CO)C(=O)N[C@@H](CO)C(=O)N[C@@H](CC(C)C)C(=O)N[C@H](C(=O)O)CSSC[C@@H](C(=O)NCC(=O)NCC(=O)N[C@@H](CO)C(=O)N[C@@H](CCCNC(=N)N)C(=O)N[C@@H](Cc2c[nH]c3ccccc23)C(=O)O)NC(=O)[C@H]([C@@H](C)O)NC(=O)[C@H](Cc2ccccc2)NC(=O)[C@H]([C@@H](C)CC)NC(=O)[C@H](C(C)C)NC(=O)[C@H](C)NC(=O)[C@H](CCCNC(=N)N)NC1=O [H3 relaxin],Eu-H3B1-22R pKi,RXFP3 [1]; Table 2,7.64 ± 0.09 (4)^
same,cAMP pEC50,RXFP3 [2]; Table 2,9.08 ± 0.07 (5)
same,cAMP pEC50,RXFP4 [3],8.94 ± 0.13 (4)
CC[C@H](C)[C@H](NC(=O)[C@H](Cc1ccccc1)NC(=O)C(Cc1ccccc1)NC(=O)[C@H](CCCNC(=N)N)NC(=O)CNC(=O)[C@@H](N)CO)C(=O)N[C@@H](CCCNC(=N)N)C(=O)NC(Cc1ccccc1)C(=O)N[C@H](C(=O)N[C@H](C(=O)N[C@@H](Cc1ccccc1)C(=O)N[C@H](C(=O)N[C@@H](CO)C(=O)NCC(=O)NCC(=O)N[C@@H](CO)C(=O)N[C@@H](CCCNC(=N)N)C(=O)N[C@@H](Cc1c[nH]c2ccccc12)C(=O)O)[C@@H](C)O)[C@@H](C)CC)C(C)C (stereo partly drawn) [H3B10-27(13/17F)] (H-SGR[ξF]FIR[ξF]VIFTSGGSRW-OH; N-terminus assumed),Ki,"RXFP3 [1]; Table 2, read-out: Eu-H3B1-22R pKi (converted)",> 10000 nM
same,EC50,"RXFP3 [2]; Table 2, read-out: cAMP pEC50 (converted)",> 10000 nM
same,Eu-R3/I5 pKi,"RXFP4 [4]; RXFP4, CHO-K1-RXFP4 cells, 5 nM Eu-R3/I5, Table 3",No binding (3)
same,cAMP pEC50,RXFP4 [3],No activity (4)
"SGLEYIRTVIYISGGSRW-OH [Linear B-chain, S-G-L-E-Y-I-R-T-V-I-Y-I-S-G-G-S-R-W-OH]",Eu-R3/I5 pKi,"RXFP4 [4]; RXFP4, Table 5",No binding (3)
CC[C@H](C)[C@H](NC(=O)[C@H](Cc1ccc(O)cc1)NC(=O)[C@@H](NC(=O)[C@@H](NC(=O)[C@]1(C)CSSC[C@](C)(NC(=O)[C@H](CC(C)C)NC(=O)CNC(=O)[C@H](CO)NC(C)=O)C(=O)N[C@@H](Cc2ccc(O)cc2)C(=O)N[C@@H]([C@@H](C)CC)C(=O)N[C@@H](CCCNC(=N)N)C(=O)N1)C(C)C)[C@@H](C)CC)C(=O)N[C@@H](CO)C(=O)NCC(=O)NCC(=O)N[C@@H](CO)C(=O)N[C@@H](CCCNC(=N)N)C(=O)N[C@@H](Cc1c[nH]c2ccccc12)C(=O)O [Disulfide bridge stapled analogue] (Ac-SGL[αMeC]YIR[αMeC]VIYISGGSRW-OH; disulfide 4-8; C-terminus assumed),Ki,RXFP4 [4],46.8 nM
same,EC50,RXFP4 [3],145 nM
B1,cAMP pEC50,[5],8.34
same,pKi,[6],8.43
same,pKi,[7],8.47
B2,cAMP pEC50,[5],8.1
same,pKi,[6],7.46
same,pKi,[7],8.11
B3,cAMP pEC50,[5],8.93
same,pKi,[7],8.64
B4,cAMP pEC50,[5],8.08
same,pKi,[7],8.06
B5,cAMP pEC50,[5],< 5
same,binding result,[6],no binding
B6,cAMP pEC50,[5],7.06
same,pKi,[6],6.8
same,pKi,[7],7.51
"Ac-SGL[S5]YIR[S5]VIYISGASRW (staple 4-8) [Hydrocarbon stapled analogue (INSL5 B-chain, Formula VI)]",cAMP pEC50,[5],6.18
same,pKi,[7],6.81
B7,cAMP pEC50,[5],7.39
same,pKi,[7],8.13
"Ac-SGL[αMeC]YIR[αMeC]VIYISGGSRW (disulfide 4-8, also called disulfide stapled analogue) [Disulfide bridge stapled analogue (INSL5 B-chain, Formula IX)]",cAMP pEC50,[5],6.84
same,pKi,[6],7.33
"SGLKYIRDVIYISGASRW (lactam 4-8) [Lactam Bridge stapled analogue (INSL5 B-chain, Formula VII)]",pKi,[7],6.45
"SGREFIRAVIFTSR (14 residues) [H3B10-22R13/17EA (Formula XII, truncated form of H3B1-22R)]",binding result,[8],no binding
same,pKi,[9],6.08
"SGRFFIRFVIFTSR (14 residues) [H3B10-22R13/17FF (Formula XIII, non-alpha-methylated analogue of Formula X)]",binding result,[8],no binding
same,pKi,[9],6.67
